Results reported in US20260193316A1.

Key:
Assay in all cases: cell-based or functional assay
C1C252 (human) = C1C252 (human) (UniProt P11836)
C1C3 (human) = C1C3 (human) (UniProt P11836)
[1] = biological target: CD20WT (wild type amino acidic sequence of human CD20) (human) (UniProt P11836)

Measured: reduction in the hCD20+ cell population in mice (GFP+ T cells in blood)

2H7 mouse anti-human CD20 antibody
65%: all assays above
